Assays:
[1] = target: the molecule itself; test: light scattering; 2 uM GalR diluted from a stock in 1 M NaCl into 50 mM TrisCl pH 8 with 78-1000 mM NaCl (or 25-700 mM Na2SO4 with 78 mM NaCl); 365 nm, stirring, room temperature; dimers to aggregates at low ionic strength
[2] = target: the molecule itself; test: dynamic light scattering; 6.4 uM GalR^T322R, 20 °C, 250 mM NaCl; monomers to dimer
[3] = target: the molecule itself; test: negative staining transmission electron microscopy; 3.8 uM GalR, 50 mM Tris:Cl pH 8, 250 mM NaCl unless otherwise stated (GalR^N48I: 150 mM NaCl); flash-frozen, stained with 1% phosphotungstic acid; dimers to ordered aggregates

B1: Gal repressor GalR, wild type (GalR^WT), hexahistidine-tagged (natural protein, Escherichia coli, UniProt P03024 1-343, looked up)
chain: MATIKDVARLAGVSVATVSRVINNSPKASEASRLAVHSAMESLSYHPNANARALAQQTTETVGLVVGDVSDPFFGAMVKAVEQVAYHTGNFLLIGNGYHNEQKERQAIEQLIRHRCAALVVHAKMIPDADLASLMKQMPGMVLINRILPGFENRCIALDDRYGAWLATRHLIQQGHTRIGYLCSNHSISDAEDRLQGYYDALAESGIAANDRLVTFGEPDESGGEQAMTELLGRGRNFTAVACYNDSMAAGAMGVLNDNGIDVPGEISLIGFDDVLVSRYVRPRLTTVRYPIVTMATQAAELALALADNRPLPEITNVFSPTLVRRHSVSTPSLEASHHATSD
notes: GalR, the Gal repressor of Escherichia coli; 37 kDa subunit
- binding result [1]: binds

B2: GalR^T322R, hexahistidine-tagged (natural protein, Escherichia coli, UniProt P03024 1-343, looked up)
chain: MATIKDVARLAGVSVATVSRVINNSPKASEASRLAVHSAMESLSYHPNANARALAQQTTETVGLVVGDVSDPFFGAMVKAVEQVAYHTGNFLLIGNGYHNEQKERQAIEQLIRHRCAALVVHAKMIPDADLASLMKQMPGMVLINRILPGFENRCIALDDRYGAWLATRHLIQQGHTRIGYLCSNHSISDAEDRLQGYYDALAESGIAANDRLVTFGEPDESGGEQAMTELLGRGRNFTAVACYNDSMAAGAMGVLNDNGIDVPGEISLIGFDDVLVSRYVRPRLTTVRYPIVTMATQAAELALALADNRPLPEITNVFSPRLVRRHSVSTPSLEASHHATSD
notes: GalR of Escherichia coli with T322R; Tetramer formation is strongly impaired in this mutant (cited); also called non-tetramerizing GalR mutant; source: expressed from vector plasmid pSEM1026 under an L-arabinose inducible promoter, purified
- binding result [2]: binds

B3: GalR^N48I, hexahistidine-tagged (natural protein, Escherichia coli, UniProt P03024 1-343, looked up)
chain: MATIKDVARLAGVSVATVSRVINNSPKASEASRLAVHSAMESLSYHPIANARALAQQTTETVGLVVGDVSDPFFGAMVKAVEQVAYHTGNFLLIGNGYHNEQKERQAIEQLIRHRCAALVVHAKMIPDADLASLMKQMPGMVLINRILPGFENRCIALDDRYGAWLATRHLIQQGHTRIGYLCSNHSISDAEDRLQGYYDALAESGIAANDRLVTFGEPDESGGEQAMTELLGRGRNFTAVACYNDSMAAGAMGVLNDNGIDVPGEISLIGFDDVLVSRYVRPRLTTVRYPIVTMATQAAELALALADNRPLPEITNVFSPTLVRRHSVSTPSLEASHHATSD
notes: GalR of Escherichia coli with N48I; source: expressed from vector plasmid pSEM1026 under an L-arabinose inducible promoter, purified
- binding result [3]: binds

Source: paper PMC4899725, “The transcriptional regulator GalR self-assembles to form highly regular tubular structures” (Scientific Reports, 2016)
